According to patent US20170158753A1:
Residue numbers refer to the chain shown, from its start. Where “and” joins values, the source holds several entries; their conditions need not be identical. Equal entries are not always repeated. Where two headings read alike, the source gives them in different places.

B1: m8C4 (antibody, V domains shown)
VH: EVQLQESGPELKKPGETVKISCKASGYTFTTYGMSWVKQAPGKGLKWMGRINTYSGVPTYADEFKGRFAFSLENSASTAYLQINNLKNEDTATYFCARGDGGHWFANWGQGTLVTVSA
VL: DIQMTQSPSSLSASLGGKVTITCKASQDINKNIAWYQHKPGKGPRLLIWYKSALQPGIPSRFSGSGSGRDYSFSISNLEPEDIATYSCLQYDNLPPTFGGGTKLEIKR
B2: m16G8 (antibody, V domains shown)
VH: EVQLQESGPGLVKPGASVKISCKASGYSFTGYYMNWVKQSPEKSLEWIGEINPSTGGTTYNQKFKAKATLTVDKSSSTAYMQLKSLTSEDSAVYYCVRYSHYYGSGSWYFDVWGTGTTVTVSS
VL: DIQMTQSPASLSASVGETVTITCRASENIYSNLAWYQQKQGKSPQLLVNAATNLADGVPSRFSGSGSGTQFSLKINSLQPEDFGSYYCQHFYVTPYMFGSGTKLEIKR
B3: m17C6 (antibody, V domains shown)
VH: EVQLQESGPGLVQPSQSLSITCTVSGFSLTSYGVHWVRQSPGKGLEWLGVIWSGGSTDYNAAFISRLSISKDNSKSQVFFKMNSLQADDTAIYYCARNWFDYDNYYSMDYWGQGTSVTVSS
VL: DIQMTQTTSSLSASLGDRVTISCRASQDISNYLNWYQQKPDGTVKLLIYYTSRLHSGVPSRFSGSGSGTDFSLTISNQEPEDIATYYCQQYSNLPWTFGGGTKLEIKR
B4: m2D8 (antibody, V domains shown)
VH: EVQLQESGGELVRPGTSVKISCKASGYTFTNFWLGWIKERPGHGLEWIGDIYPGGHYTNYNENFKGKATLTADTSSNTAYMQVSSLTSEDSAVYFCFTQYYDMDYWGQGTSVTVSS
VL: not shown
B5: m21B2 (antibody, V domains shown)
VH: EVQLQESGAELVRPGASVTLSCKTSGYTFTDYEMHWVKQTPVHGLEWIGAIDPETGGTAYNQKFKGKATLTADKSSSTAYMELSRLTSEDSAVYYCTGNYATDYWGQGTSVTVSS
VL: DIVMSQSPSSLAVSAGEKVTMSCKSSQSLFNSRSRKNYLAWYQLKPGQSPKLLIYWASTRESGVPDRFTGSGSGTDFTLTISSVQAEDLAVYYCKQSNYLWTFGGGTKLEIKR
B6: m2E4 (antibody, V domains shown)
VH: B2 VH with G10E
VL: B2 VL with M97T

Assays:
[1] = target: BDBV GP[change] (Bundibugyo virus (BDBV)); assay: ELISA, GPΔTM coated
[2] = target: EBOV GP[change] (Ebola virus) (UniProt Q05320)
[3] = target: SUDV GP[change] (Sudan virus) (UniProt Q66814)
[4] = target: EBOV GP[change] (Ebola virus) (UniProt Q05320); remark: listed apart in the source
[5] = target: EBOV GP[change] (Ebola virus), Q05320; conditions: remark: other sources report otherwise
[6] = target: EBOV GP[change] (Ebola virus), Q05320; conditions: remark: other sources report otherwise; remark: listed apart in the source
[7] = target: cleaved EBOV GP (GPcl) (Ebola virus (EBOV)), Q05320; assay: ELISA on thermolysin cleaved EBOV GP (GPcl), OD650 against nM mAb; conditions: remark: other sources report otherwise
[8] = target: EBOV GP[change] (Ebola virus), Q05320; conditions: remark: other sources report otherwise; remark: listed apart in the source
[9] = target: cleaved EBOV GP (GPcl) (Ebola virus (EBOV)), Q05320; assay: ELISA, cleaved EBOV GP coated; conditions: remark: other sources report otherwise
[10] = target: cleaved EBOV GP (GPcl) (Ebola virus (EBOV)), Q05320; assay: ELISA on cathepsin-cleaved EBOV GP at pH 5.5; conditions: remark: other sources report otherwise
[11] = target: cleaved EBOV GP (GPcl) (Ebola virus (EBOV)), Q05320; assay: ELISA on cathepsin-cleaved EBOV GP at pH 7; conditions: remark: other sources report otherwise
[12] = target: MARV GP[change] (Marburg virus), P35253; conditions: remark: other sources report otherwise
[13] = target: MARV GP[change] (Marburg virus) (UniProt P35253)
[14] = target: RESTV GP[change] (Reston virus) (UniProt Q66799)

Binder | EC50 [1] | EC50 [3] | EC50 [4] | EC50 [5] | EC50 [6] | EC50 [7] | EC50 [12] | further results
B1 | > 10 µg/mL | 0.15 µg/mL and 0.06 µg/mL | 0.26 µg/mL | 0.21 µg/mL | 2.6 nM | – | – | EC50 [2]: 6.7 nM
B2 | – | – | – | 1.23 µg/mL | 3.3 nM | > 100 nM | – | –
B3 | – | – | – | 0.03 µg/mL | 1 nM | 0.6 nM | – | Kd [8]: 11 nM
B4 | – | – | – | 26.2 µg/mL | – | – | 0.0573 µg/mL | EC50 [9]: 0.72 µg/mL; EC50 (read off the curve) [10]: 1 µg/mL; EC50 (read off the curve) [11]: 0.7 µg/mL
B5 | – | > 10 µg/mL | – | > 10 µg/mL | – | – | 0.0307 µg/mL | EC50 [13]: 0.0688 µg/mL
B6 | 0.69 µg/mL | – | > 10 µg/mL | – | – | – | – | EC50 [14]: > 10 µg/mL
